Reference: paper PMC9621694 (2022)

Tests used:
Assay in all cases: SPR
[1] = biological target: rsvfv_hal_3
[2] = biological target: rsvfv_hal_2
[3] = biological target: rsvfv_hal_1

- Kd [1]: 1.3 µM
- Kd [2]: 1 µM
- Kd [3]: 0.9 µM
B1: neutralizing antibody hRSV90 (antibody, V domains shown)
VH: EVQLVESGGGLVQPRRSLRLSCAASGFTFDDYTIHWVRQAPGKGLEWVSGITWNSGYIGYADSVKGRFTISRDNARNSLYLQMNSLRAEDTALYYCVRDAYVSGSDYYYYGLDVWGRGTLVTVSS
VL: EIVMTSSPATLSVSPGERVTLFCRASQSVISNLAWYQQKSGQAPRLLIYGASTRATGIPSRFSGSGSGTEFTLTISSLQSEDFAVYFCQQYNNWPLTFGGGTQVNVQ
